B1: mir-93: microRNA (SEQ ID NO:1) over-expressed from a doxycycline-inducible pTRIPZ lentiviral vector tagged with RFP (nucleic acid, listed as Homo sapiens)
chain: CTGGGGGCTCCAAAGTGCTGTTCGTGCAGGTAGTGTGATTACCCAACCTACTGCTGAGCTAGCACTTCCCGAGCCCCCGG
B2: mir-100: microRNA (SEQ ID NO:2) over-expressed from a doxycycline-inducible pTRIPZ lentiviral vector tagged with RFP (nucleic acid, listed as Homo sapiens)
chain: CCTGTTGCCACAAACCCGTAGATCCGAACTTGTGGTATTAGTCCGCACAAGCTTGTATCTATAGGTATGTGTCTGTTAGG
B3: mir-221: microRNA (SEQ ID NO:3), forced over-expression in mammary cells (nucleic acid, listed as Homo sapiens)
chain: TGAACATCCAGGTCTGGGGCATGAACCTGGCATACAATGTAGATTTCTGTGTTCGTTAGGCAACAGCTACATTGTCTGCTGGGTTTCAGGCTACCTGGAAACATGTTCTC

What was measured:
Type in all cases: cell-based, human
[1] = test system: SUM159 cells; test: induction of MET and EMT/MET marker expression in the ALDH-positive CSC population after mir-93 induction; conditions: induction of the microRNA in EMT SUM159 cells
Excerpt: (§1) Furthermore, forced over-expression of mir-100 or mir-221 increased the proportion of EpCAM^−CD49f^+ cells in non-transformed MCF-10A cells as well as primary normal human mammary cells isolated from reduction mammoplasty specimens. […] This was followed by an EMT/MET transition in the Aldefluor-positive CSC population. Since TGFβ is a major regulator of EMT, abrogation of this signaling pathway may facilitate MET.
(§2) A TET on/off inducible system was established to over-express microRNAs in a lentiviral vector tagged with RFP. Utilizing this system, it was shown that forced over-expression of mir-93 increases the proportion of EpCAM^+CD49f^+ and ALDH^+ cells (FIG. 5). […] Furthermore, forced over-expression of mir-100 increased the proportion of EpCAM^−CD49f^+ cells (FIG. 5).

[2] = test system: SUM159 cells; test: in vitro matrigel invasion assay; conditions: microRNA induced with Doxycycline vs control; serum as attractant
Protocol: The invasive capability of pTRIPZ-mir-93-RFP cells or pTRIPZ-mir-100-RFP cells with or without (CONTROL) Doxycycline was assessed by matrigel invasion assay. […] were plated in Matrigel and serum was utilized as the attractant.
as §2
Assays were done in triplicate in invasion chambers pre-coated with reduced growth factor matrix from BD Biosciences. Cells were added to the upper chamber in […] of serum-free medium. For the invasion assay, 20,000 cancer cells were seeded on the coated chamber, and the lower chamber was filled with […] of medium (Cambrex) with FBS. After 37 hours of incubation, the cells on the underside of the upper chambers were stained with the blue stain in the Cell Invasion Assay Kit (Chemicon; cat. #ECM550) and counted using light microscopy.

[3] = test system: MCF-10A cells; test: flow cytometry for EpCAM/CD49f, ALDH (Aldefluor) and CD24/CD44 after inducible lentiviral microRNA over-expression; conditions: for ALDH-positive CSC population / CD24−CD44+ population: expression of the microRNA in MCF10A cells and several cancer cell lines
Excerpt: Cells were transduced with pTRIPZ-microRNA-RFP lentiviruses with inducible systems and selected with puromycin, and microRNAs were induced with or without (CONTROL) Doxycycline and analyzed for RFP, EpCAM and CD49f.
as §1
Of interest, it has been recently reported that the mir106b-25 cluster including mir-93 is induced in the early stages of nuclear reprogramming of fibroblasts into IPS cells. This is accompanied by an EMT to MET conversion in these cells which is obligatory for reprogramming to occur.
as §2

[4] = test system: TGFβR2; test: TGFβ signaling after mir-93 induction; conditions: by targeting TGFβR2; effect seen within twelve hours of induction
Excerpt: as §1

[5] = forced over-expression of the microRNA
[6] = forced over-expression of the microRNA, MCF-10A and primary normal human mammary cells

Molecule	MET in the ALDH-positive CSC population [1]	expression of E-Cadherin and Claudin ([1]; ALDH-positive CSC population)	expression of mesenchymal genes (vimentin, N-Cadherin, Twist) ([1]; ALDH-positive CSC population)	cell invasion [2]	proportion of EpCAM+CD49f+ and ALDH+ cells ([3]; forced over-expression of the microRNA (TET inducible lentiviral vector), MCF-10A and primary normal human mammary cells)	TGFβ signaling [4]	ALDH-positive CSC population [3]	CD24−CD44+ population [3]	ALDH+ CSC population [3, 5]	proportion of CD24−CD44+ CSC cells [3, 5]	proportion of EpCAM−CD49f+ cells [3, 6]
B1	induces an MET	increased expression	down-regulation	decreased cell invasion	increases	inhibits TGFβ signaling	–	–	–	–	–
B2	–	–	–	increased cell invasion	–	–	decrease	increase	decrease	increase	increased
B3	–	–	–	–	–	–	decrease	increase	–	–	increased
